From article PMC8064835 (Cell, 2021)

B1: BG4–25 Fab (Fab, V domains shown)
VH: EVQLVESGGGLIQPGGSLRLSCAASGITVVRNYMTWVRQAPGKGLEWVSVIYSGGTTYYADSVKGRFTISRDNSKNTMYLQMNSLRAEDTAIYYCARDLEVVGAMDVWGQGTTVTVSS
VL: EIVLTQSPGTLSLSPGERATLSCRASQSVPSSYLAWYQQKPGQAPRLLIYGASSRATGIPDRFSGSGSGTDFTLTISRLEPEDFAVYYCQQYGSPMYTFGQGTKLEIK
B2: BG10–19 IgG1 (antibody, V domains shown)
VH: EVQLVQSGAEVKKPGESLKISCKGSGYSFTSYWIGWVRQMPGKGLEWMGVIYPGDSDTRYSPSFQGQVTISADKSISTAYLQWSSLKASDTAMYYCARTQWGYNYGSHFFYMDVWGKGTTVTVSS
VL: QSVLTQPPSASGTPGQRVTISCSGSSSNIGSDHVYWYQQLPGTAPKLFIYRNNQRPSGVPDRFSGSKSGTSASLAISGLRSEDEADYYCAAWDASLSGYVFGTGTKVTVL
B3: BG10–19 Fab (Fab, V domains shown)
VH: B2 VH
VL: B2 VL
B4: BG4–14 IgG1 (antibody, V domains shown)
VH: not shown
VL: QSALTQPASVSGSPGQSITISCTGTSSDVGSYNLVSWYQHHPGKAPKLMIYEVSKRPSGVSNRFSGSKSGNTASLTISGLQAEDETDYYCCSYAGSSTLVFGGGTKLTVL

What was measured:
[1] = target: T1, SARS-CoV-2 receptor-binding domain (RBD) (SARS-CoV-2, UniProt P0DTC2); experiment: crystal structure
[2] = target: T1, SARS-CoV-2 receptor-binding domain (RBD); experiment: ELISA

Binder | binding result [1] | binding result [2]
B1 | binds | 
B2 |  | binds
B3 |  | binds
B4 |  | binds
